Results reported in article PMC4928909, “Roles of C-Terminal Region of Yeast and Human Rad52 in Rad51-Nucleoprotein Filament Formation and ssDNA Annealing”.

How the values were obtained:
Assay in all cases: EMSA; 3 mM Mg acetate; 30 mM Tris-acetate pH 7.5, 3 mM Mg acetate, 20 mM NaCl, 37 C, 15 min, 100 nM labeled ssDNA; 6% PAGE in TBE
hRAD52 = molecular target: T1, hRAD52 (Homo sapiens, UniProt P43351 1-418); settings: protein: recombinant; tags: C-terminal His6; label: 5'-32P; single strand
T1 sequence: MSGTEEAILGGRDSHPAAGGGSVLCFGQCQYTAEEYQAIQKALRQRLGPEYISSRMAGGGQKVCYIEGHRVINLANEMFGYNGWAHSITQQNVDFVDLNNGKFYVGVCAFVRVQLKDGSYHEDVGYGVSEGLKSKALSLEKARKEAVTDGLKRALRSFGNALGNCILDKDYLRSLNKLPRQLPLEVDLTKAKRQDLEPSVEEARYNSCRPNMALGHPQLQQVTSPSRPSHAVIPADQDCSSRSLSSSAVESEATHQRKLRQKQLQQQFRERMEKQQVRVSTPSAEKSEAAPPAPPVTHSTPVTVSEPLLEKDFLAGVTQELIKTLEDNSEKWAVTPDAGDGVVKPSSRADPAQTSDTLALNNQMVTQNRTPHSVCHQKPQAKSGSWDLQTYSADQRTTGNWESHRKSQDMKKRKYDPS

yRad52 = yRad52 (Saccharomyces cerevisiae, UniProt P06778 1-471); settings: protein: recombinant; tags: C-terminal His6; chain copies: 10; label: 5'-32P; single strand
hRAD52NM = molecular target: T2, hRAD52NM (Homo sapiens, UniProt P43351 1-290); settings: protein: recombinant; tags: C-terminal His6; chain copies: 11; label: 5'-32P; single strand
T2 sequence: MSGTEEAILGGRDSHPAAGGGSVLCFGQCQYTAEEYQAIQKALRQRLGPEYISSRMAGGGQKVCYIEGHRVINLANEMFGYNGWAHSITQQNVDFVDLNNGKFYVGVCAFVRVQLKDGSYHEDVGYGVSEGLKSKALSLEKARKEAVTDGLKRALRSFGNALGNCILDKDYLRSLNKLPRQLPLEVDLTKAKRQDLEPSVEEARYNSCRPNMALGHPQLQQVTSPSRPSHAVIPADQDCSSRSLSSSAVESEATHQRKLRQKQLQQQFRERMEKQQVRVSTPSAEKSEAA

Measured: binding result

Chain of yRad52 (P06778 whole entry): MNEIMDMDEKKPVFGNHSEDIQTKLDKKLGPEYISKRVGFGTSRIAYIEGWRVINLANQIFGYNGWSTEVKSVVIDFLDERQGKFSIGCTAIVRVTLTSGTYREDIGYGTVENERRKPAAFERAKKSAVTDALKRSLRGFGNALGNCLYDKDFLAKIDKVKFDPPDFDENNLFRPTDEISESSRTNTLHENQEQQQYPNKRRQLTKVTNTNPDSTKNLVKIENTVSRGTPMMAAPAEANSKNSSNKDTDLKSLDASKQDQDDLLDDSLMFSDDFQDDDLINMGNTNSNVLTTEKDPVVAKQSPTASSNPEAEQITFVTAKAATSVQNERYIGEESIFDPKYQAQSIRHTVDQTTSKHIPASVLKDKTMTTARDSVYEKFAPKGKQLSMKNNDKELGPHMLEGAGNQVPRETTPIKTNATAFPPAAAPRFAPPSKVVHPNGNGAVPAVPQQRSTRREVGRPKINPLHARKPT

B1: TSO252 (ssDNA)
DNA: TGGTTGAGTACTCACCAGTCACAGAAAAGCATCTTACGGATGGCATGACAGTAAGAGAATTATGCAGTGC
binds: all assays above
